The values that follow come from patent US20100129390A1, “DKK1 AS A UNIVERSAL TUMOR VACCINE FOR IMMUNOTHERAPY OF CANCERS” (priority 2007, published 2010).

Assay [1] addresses T1, HLA-A*0201 molecules on T2 cells (human).
T1 construct: MHC class I molecule on T2 cells; also called HLA-A2.1
Put plainly: cell-based or functional assay.

The test system of assay [2] is DKK1 peptide-specific T-cell lines. As to the kind of experiment: T-cell proliferation assay (3[H]-thymidine). To be noted: after 3 to 4 rounds of in vitro stimulation; P<0.01 compared with unpulsed DC. Format: cell-based, human. On the procedure: DKK1-specific T cells were generated from PBMCs of HLA-A*0201^+ blood donors and myeloma patients by repeated stimulation of autologous T cells with DKK1 peptide-loaded mature DCs. Briefly, the non-adherent cells of PBMCs (2×10^6/mL; used as T-cell population) were cocultured in 50 mL tissue-culture flasks at 37° C. in 5% CO2 for 7-10 days in Aim-V medium supplemented with 10% pooled human serum (T-cell medium) with mature DCs (2×10^5/mL) preincubated with DKK1 peptides at a final concentration of 50 μg/mL at 37° C. for 2 h. After culture, T cells were collected and restimulated with DKK1 peptide-pulsed autologous mature DCs every week, and the cultures were fed every 5 days with fresh medium containing recombinant IL-2 (20 IU/mL), IL-7 (5 ng/mL) and IL-15 (5 ng/mL; all from R&D System). Induction of DKK1-specific T cells was monitored weekly using T-cell proliferation assay and DKK1 peptide-HLA-A*0201 tetramers (synthesized by MHC Tetramer Laboratory, Baylor College of Medicine, Houston, Tex.). […]
T cells (5×10^4/100 μL/well) were seeded into 96-well U-bottom tissue culture plates (Corning Incorporated, Corning, N.Y.) in T-cell medium. […] T-cell proliferation was measured after overnight incubation with ^3[H]-thymidine ([…]/0.037 MBq/well). Results are expressed as mean count per minute (CPM) of triplicate cultures.

The subject of assay [3] is HLA-A*0201 transgenic mice. As to the kind of experiment: In vivo immunogenicity of the peptides. To be noted: 100 μg per mouse s.c., single immunization, splenocytes two weeks after. The text has this: HLA-A*0201 transgenic (Tg[HLA-A2.1]) mice were purchased from Jackson Laboratory (Bar Harbor, Me.). Ishioka, G. Y., et al., Utilization of MHC Class I Transgenic Mice for Development of Minigene DNA Vaccines Encoding Multiple HLA-Restricted CTL Epitopes, J. Immunol. 1999, 162:3915-3925; Alexander, J., et al., A Decaepitope Polypeptide Primes for Multiple CD8+ IFN-Gamma and Th Lymphocyte Responses: Evaluation of Multiepitope Polypeptides as a Mode for Vaccine Delivery, J. Immunol. […] Mice were maintained at the animal facility and studies were approved by the Institutional Animal Care and Use Committees of The University of Texas M. D. Anderson Cancer Center.
For immunization, peptides were diluted in PBS at room temperature, mixed, and emulsified with an equal volume of incomplete Freund's adjuvant (Sigma). […]
To examine whether the peptides were able to immunize HLA-A*0201 transgenic mice, we injected 100 μg per mouse of peptides P20 (SEQ. ID NO. 1) and P66v (SEQ. ID. NO. 4), and Flu-matrix peptide as positive control s.c. to the mice (3 mice per peptide) according to established protocol. […] In vivo immunization successfully generated peptide-specific T cells, detected as specific IFN-γ-expressing (FIG. 2C) and peptide (P20 or P66v)-HLA-A*0201 tetramer^+ CD8^+ T cells (FIG. 2D).

A further assay addresses HLA-ABC. As to the kind of experiment: cell-based or functional assay.
Another assay has as its target T2, HLA-A*0201 molecules (Homo sapiens, UniProt P04439, D140Y/D185E/D98H/E176V/E277Q/G131W/G231S/I119V/I121R/I166T/I218V/L300P/L318F/N151K/N90K/P208A/P217A/Q86G/Q94H/R138H/R169H/T345S).
T2 construct: endogenous in cells; host or cells: T2 cell line
Put plainly: Peptide-T2 cell binding assay. To be noted: HLA-A*0201 expression by flow cytometry (FIG. 2A). On the procedure: All peptides were synthesized in the Peptide Synthesis Facility at M. D. Anderson Cancer Center. Purity of synthetic peptides was confirmed to be >98% by reverse-phase high-performance liquid chromatography and mass spectrometry. Synthetic peptides were dissolved in dimethylsulfoxide (DMSO; Sigma, St. Louis, Mo.), and stored at −20° C. until use. Peptides binding to HLA-A*0201 molecules were measured using the T2 cell line according to a protocol previously described. Nijman, H. W., et al., Identification of Peptide Sequences that Potentially Trigger HLA-A2.1-Restricted Cytotoxic T Lymphocytes, Eur J. Immunol. 1993, 23:1215-1219. Briefly, T2 cells were incubated overnight with 3 μg/mL of β2-microglobulin (Sigma) and different concentrations of peptides, followed by wash and incubation with FITC-labeled anti-HLA-A*0201 mAb BB7.2 (BD PharMingen). After washing, cells were analyzed for the levels of HLA-A*0201 expression by flow cytometry. HLA-A*0201 expression was quantified according to the formula [(mean fluorescence with peptide−mean fluorescence without peptide)/mean fluorescence without peptide]×100.
On the technique in general: A flow cytometer gives signals particle by particle.

In assay [4] the test system is murine myeloma cell line tumor-A. As to the kind of experiment: Vaccination and murine myeloma challenge. Format: in vivo, Balb/c mice. To be noted: vaccinated three times, s.c. challenge with tumor-A 1×10^6 cells/mouse. On the procedure:
Balb/c mice (4 per group) were s.c. vaccinated three times with murine DKK1 protein (50 ug/mouse) at a 30-day interval followed by s.c. challenge with murine myeloma cell line tumor-A (1×10^6 cells/mouse) after one weeks of third vaccination. Tumor burdens were measured twice every wk. Mice were euthanized when s.c. tumors reached 225 mm^2 or when mice became moribund. FIG. 18A is a graph depicting ELISA titers of anti-DKK1 antibody in the serum of immunized mice. Results shown in FIG. 18B are survival of mice that received DKK1 protein vaccinations and PBS control. Splenocytes were isolated from survival mice and pooled, and restimulated with irradiated tumor-A for 5 d. […]
Balb/c mice (5 per group) were s.c. vaccinated three times with three DKK1 peptides (100 ug/mouse) at a 14-day interval followed by s.c. challenge with murine myeloma cell line tumor-A (1×10^6 cells/mouse) after one week of third vaccination. Tumor burdens were measured twice every wk. […]
Balb/c mice (5 per group) were i.m. vaccinated three times with murine DKK1 DNA (50 ug/mouse) at a 14-day interval followed by s.c. challenge with murine myeloma cell line tumor-A (1×10^6 cells/mouse) after one weeks of third vaccination. Tumor burdens were measured twice every wk. […]

Assay [5] concerns the target T1, HLA-A*0201 molecules on T2 cells. As to the kind of experiment: peptide-T2 cell binding assay, flow cytometry of surface HLA-A*0201 with mAb BB7.2. On the procedure:
All peptides were synthesized in the Peptide Synthesis Facility at M. D. Anderson Cancer Center. Purity of synthetic peptides was confirmed to be >98% by reverse-phase high-performance liquid chromatography and mass spectrometry. Synthetic peptides were dissolved in dimethylsulfoxide (DMSO; Sigma, St. Louis, Mo.), and stored at −20° C. until use. […] Nijman, H. W., et al., Identification of Peptide Sequences that Potentially Trigger HLA-A2.1-Restricted Cytotoxic T Lymphocytes, Eur J. Immunol. 1993, 23:1215-1219.

Take anti-HLA-A*0201 mAb BB7.2 (antibody): the inhibition of T cell-mediated cytotoxicity against peptide-pulsed T2 cells (51Cr release) in assay [1] is 70 to 80 % inhibition.

For the molecule “ALGGHPLLGV (listed as Homo Sapiens) [P20]”, in assay [2], the “T-cell line proliferation in response to autologous DCs pulsed with peptide” value was “proliferated in response to autologous DCs pulsed, but not unpulsed”. Also, the “immunogenicity in immunizing the mice” value in assay [3] is on record as “as immunogenic as the Flu-matrix peptide”.

The molecule anti-HLA-ABC mAb W6/32 (antibody) registered an inhibition of T cell-mediated cytotoxicity against peptide-pulsed T2 cells (51Cr release) with HLA-ABC of 70 to 80 % inhibition.

As for “ILYPGGNKV (listed as Homo Sapiens) [P66v]”, in assay [2], the “T-cell line proliferation in response to autologous DCs pulsed with peptide” value is reported as “proliferated in response to autologous DCs pulsed, but not unpulsed”. Also, in the assay with HLA-A*0201 molecules, the binding affinity entry is on record as “much higher binding affinity than P66”. Moreover, the “immunogenicity in immunizing the mice” value in assay [3] was “as immunogenic as the Flu-matrix peptide”.

B1: DKK1 Protein Vaccine: murine DKK1 protein, 50 ug/mouse s.c. (protein, UniProt O54908 32-272, looked up)
Dickkopf-related protein 1: TLNSVLINSNAIKNLPPPLGGAGGQPGSAVSVAPGVLYEGGNKYQTLDNYQPYPCAEDEECGSDEYCSSPSRGAAGVGGVQICLACRKRRKRCMRHAMCCPGNYCKNGICMPSDHSHFPRGEIEESIIENLGNDHNAAAGDGYPRRTTLTSKIYHTKGQEGSVCLRSSDCAAGLCCARHFWSKICKPVLKEGQVCTKHKRKGSHGLEIFQRCYCGEGLACRIQKDHHQASNSSRLHTCQRH
For B1, in assay [4], the “protection against murine MM challenge” value is “can Protect Murine MM Challenge”.

On to ILYPGGNKV (Heteroclitic variant of P66) [DKK1 heteroclitic peptide P66v], for which, in assay [5], the binding result is recorded as “binds”.

B2: DKK1 peptide P66 (peptide)
peptide: ILYPGGNKY
notes: Synthetic peptide; the end of the range follows from the length of 9 residues
As for B2, the binding result in assay [5] is on record as “binds”.

B3: DKK1 peptide P20 (peptide)
peptide: ALGGHPLLGV
notes: Synthetic peptide, purity >98%; the end of the range follows from the length of 10 residues
B3: the binding result in assay [5] was “binds”.

Regarding YLGGHPLLGV (Heteroclitic variant of P20) [DKK1 heteroclitic peptide Py20], the binding result in assay [5] is “binds”.
